From publication PMC3722283

Each substance was assayed against concanavalin A (assay: SPR).

Kd [µM]	Substance
2.4	monofluoro-Man3GlcNAc2 glycoform of RNase (glycoprotein 2) (from UniProt P61823 27-150) (natural protein)
1.2	bovine ribonuclease B (native, carrying Man5-9 N-glycans) (from UniProt P61823 27-150) (natural protein)
2.5	Man3GlcNAc2-RNase (glycoprotein 3) (from UniProt P61823 27-150) (natural protein)
